# Experimental data: article PMC2999833
# Tests used:
# [1] = molecular target: Dok1 pY362 peptide (human); test: SPR
# [2] = molecular target: Dok2 pY345 peptide (human); test: SPR
substance,measurement,setting,value
Full-length recombinant His tagged human Nck1 (from UniProt P16333 1-377) (natural protein),Kd,[1],600 nM
same,Kd,[2],3500 nM
